B1: YPEL3 (parent)
chain: SKPKTFQAYLDDCHRRYSCAHCRA
B2: RAB22A (parent)
chain: FVEDSFDPNINPTIGASFMTKTVQ

Variants of: B1
Assay: protein stability index of a GFP-peptide fusion (GPS, HEK-293T) (PSI 1-6); higher = more stable
Settings: c terminus: a fixed tail appended
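Also: lentivirally expressed fusions sorted by FACS into six bins by GFP to DsRed ratio, PSI derived from sequencing read proportions per bin multiplied by bin number.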

Variant	protein stability index
SKPKTFQAYLDDCHRRYSLAHCRA [C19L]	2.08
SKPKTFQAYLDDCHRRYSVAHCRA [C19V]	2.41
SKPKTFQAYLDDCHRRYSIAHCRA [C19I]	2.33
SKPKTFQAYLDDCHRRYSKAHCRA [C19K]	2.64
SKPKTFQAYLDDCHRRYSWAHCRA [C19W]	1.66
SKPKTFQAYLDDCHRMYSCAHCRA [R16M]	1.88
SKPKTFQAYLDDCHRFYSCAHCRA [R16F]	1.76
SKPKTFQAYLDDCHREYSCAHCRA [R16E]	3.04
SKPKTFQAYEDDCHRRYSCAHCRA [L10E]	3.4
SKPKTFQAYPDDCHRRYSCAHCRA [L10P]	2.79
SKPKTFQAYQDDCHRRYSCAHCRA [L10Q]	2.48
SKPKTFQAYSDDCHRRYSCAHCRA [L10S]	2.8
SKPKTFQAYKDDCHRRYSCAHCRA [L10K]	2.94
SKPKTFFAYLDDCHRRYSCAHCRA [Q7F]	3.06
SKPKTFYAYLDDCHRRYSCAHCRA [Q7Y]	1.85
SKPKTFIAYLDDCHRRYSCAHCRA [Q7I]	1.4
SKPKTFAAYLDDCHRRYSCAHCRA [Q7A]	2.39
SKPKTFEAYLDDCHRRYSCAHCRA [Q7E]	2.16
SKPKTFTAYLDDCHRRYSCAHCRA [Q7T]	1.93
SKPKTFLAYLDDCHRRYSCAHCRA [Q7L]	1.76
SKWKTFQAYLDDCHRRYSCAHCRA [P3W]	1.8
SKLKTFQAYLDDCHRRYSCAHCRA [P3L]	2.13

Variant	protein stability index
SKRKTFQAYLDDCHRRYSCAHCRA [P3R]	2.05
SKIKTFQAYLDDCHRRYSCAHCRA [P3I]	2.19
SKHKTFQAYLDDCHRRYSCAHCRA [P3H]	1.54
SKPFTFQAYLDDCHRRYSCAHCRA [K4F]	1.72
SKPDTFQAYLDDCHRRYSCAHCRA [K4D]	1.86
SKPSTFQAYLDDCHRRYSCAHCRA [K4S]	2.5
SKPLTFQAYLDDCHRRYSCAHCRA [K4L]	2.42
SKPCTFQAYLDDCHRRYSCAHCRA [K4C]	1.86
SKPPTFQAYLDDCHRRYSCAHCRA [K4P]	1.9
SKPTTFQAYLDDCHRRYSCAHCRA [K4T]	1.74
SKPNTFQAYLDDCHRRYSCAHCRA [K4N]	1.87
SKPKTSQAYLDDCHRRYSCAHCRA [F6S]	3.3
SKPKTPQAYLDDCHRRYSCAHCRA [F6P]	2.96
SKPKTTQAYLDDCHRRYSCAHCRA [F6T]	3.23
SKPKTQQAYLDDCHRRYSCAHCRA [F6Q]	3.21
SKPKTWQAYLDDCHRRYSCAHCRA [F6W]	2.44
SKPKTFQAYLDDCHRRYSCLHCRA [A20L]	1.64
SKPKTFQAYLDDCHRRYSCPHCRA [A20P]	1.92
SKPKTFQAYLDDCHRRYSCNHCRA [A20N]	2.92
SKPKTFQAYLDDCHRRYSCYHCRA [A20Y]	2.16
SKPKTFQAYLDDCHRRYSCCHCRA [A20C]	1.31
SKPKTFQAYLDDCHRRYSCFHCRA [A20F]	2.22

Variant	protein stability index
SKPKTFQAYLDDAHRRYSCAHCRA [C13A]	1.8
SKPKTFQAYLDDPHRRYSCAHCRA [C13P]	1.68
SKPKTFQAYLDDKHRRYSCAHCRA [C13K]	2.69
SKPKTFQAYLDDIHRRYSCAHCRA [C13I]	1.94
SKPKTFQAYLDDLHRRYSCAHCRA [C13L]	2.12
SKPKTFQAYLDDEHRRYSCAHCRA [C13E]	1.78
SKPKTFQAYLDDRHRRYSCAHCRA [C13R]	2.19
SKPKTFQAYLDDWHRRYSCAHCRA [C13W]	1.71
SKPKTFQAYLDDQHRRYSCAHCRA [C13Q]	2.48
SKPKTFQAYLDDCHRRGSCAHCRA [Y17G]	2.02
SKPKTFQAYLDDCHRRPSCAHCRA [Y17P]	1.93
SKPKTFQAYLDDCHRRSSCAHCRA [Y17S]	1.89
SKPKTFQAYLDDCHRRNSCAHCRA [Y17N]	1.8
SKPKTFQAYLDDCHRRDSCAHCRA [Y17D]	2.44
SKPKSFQAYLDDCHRRYSCAHCRA [T5S]	1.77
SKPKDFQAYLDDCHRRYSCAHCRA [T5D]	2.94
SKPKHFQAYLDDCHRRYSCAHCRA [T5H]	2.57
SKPKWFQAYLDDCHRRYSCAHCRA [T5W]	1.99
SKPKVFQAYLDDCHRRYSCAHCRA [T5V]	2.05
SKPKEFQAYLDDCHRRYSCAHCRA [T5E]	3.37
SKPKNFQAYLDDCHRRYSCAHCRA [T5N]	2.53
SKPKYFQAYLDDCHRRYSCAHCRA [T5Y]	1.97

Variants of: B2
Assay: as above
Settings: c terminus: a fixed tail appended

Variant	protein stability index
FVEDSFDPNIMPTIGASFMTKTVQ [N11M]	2.14
FVEDSFDPNINPTVGASFMTKTVQ [I14V]	2.69
FVEDSFDPNSNPTIGASFMTKTVQ [I10S]	2.56
FVEDSFDPNGNPTIGASFMTKTVQ [I10G]	2.3
FVEDSFDPNINPTIGASFMTITVQ [K21I]	2.18
FVADSFDPNINPTIGASFMTKTVQ [E3A]	1.93
FVMDSFDPNINPTIGASFMTKTVQ [E3M]	1.84
FVEDSFPPNINPTIGASFMTKTVQ [D7P]	1.96
FVEDSFDPNINPTIGASFMTKMVQ [T22M]	2.11
FVEDSFDPNINPTIGASFMTKTKQ [V23K]	2.26
FVEDSFDPNINPTIGASFMTKTLQ [V23L]	2.93
FVEDSFDPNINPTIGASFMTKTRQ [V23R]	1.89
FVEDSFDPNINKTIGASFMTKTVQ [P12K]	2.42
FVEPSFDPNINPTIGASFMTKTVQ [D4P]	1.78
FVEGSFDPNINPTIGASFMTKTVQ [D4G]	2.02
FVEASFDPNINPTIGASFMTKTVQ [D4A]	1.63
FVESSFDPNINPTIGASFMTKTVQ [D4S]	1.65
FVERSFDPNINPTIGASFMTKTVQ [D4R]	1.7
FVEDSFDPNINPTIGASFMTKTVM [Q24M]	1.71
FAEDSFDPNINPTIGASFMTKTVQ [V2A]	3.54
FVEDSFDPNINPTIGALFMTKTVQ [S17L]	1.77
FVEDSFDTNINPTIGASFMTKTVQ [P8T]	2.39
FVEDSFDRNINPTIGASFMTKTVQ [P8R]	2.63
FVEDSFDPNINPTIGASFMCKTVQ [T20C]	2.38
FVEDSFDPRINPTIGASFMTKTVQ [N9R]	1.95
FVEDSFDPLINPTIGASFMTKTVQ [N9L]	1.66
FVEDSFDPNINPTIGASFTTKTVQ [M19T]	2.81
FVEDSFDPNINPTIMASFMTKTVQ [G15M]	2.06

— the supplement of paper PMC10567573
